Experimental data published in the RNAGym collection of RNA variant scans (doi:10.1073/pnas.2313332121).
This sample holds only a part of the variants without activity.

B1: TPR 5TU (parent)
chain: GGAUCUUCUCGAUCUAACAAAAAAGACAAAUCUGCCACAAAGCUUGAGAGCAUCUUCGGAUGCAGAGGCGGCAGCCUUCGGUGGCGCGAUAGCGCCAACGUUCUCAACUAUGACACGCAAAACGCGUGCUCCGUUGAAUGGAGUUUAUCAUG

Variants of: B1
Assay: polymerase ribozyme fitness, log enrichment relative to wild type (log ratio); higher = more active; in vitro selection for triplet polymerase activity
In short: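 Mutant libraries were PCR-built and transcribed for each subunit of a heterodimeric triplet polymerase ribozyme and selected for one round in triplicate at −7 °C, frozen, before gel excision of extended constructs and streptavidin-bead capture. Input and output libraries were Illumina-sequenced, keeping genotypes with ≥10 input reads and ≥1 read per output. Fitness is a logarithmic ratio of genotype to wild-type enrichment, in base 2, using inverse-variance-weighted replicate averages.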

Variant	polymerase ribozyme fitness (log ratio)
U31G C32U C75G A98G A121C G133A	≤ -4.2
A30U G83U G141U	-3.89
C57G G59C G86A A142G	-3.23
C35U C51U C85A	-3.1
A39C G84A	-3.26
U13C C51G C54G C75U G83U	≤ -4.2
A28U A49C C103G	≤ -4.2
G25C U31C C32G U55A C75G C76U C79A A115G A120C C129A	≤ -4.2
G50A U53C U56A A91U G94C A142C	≤ -4.2
G81U G141A	0.321
A20U G81C A147U	-0.168
A3U C18A A22U A37G C85U	-3.29
A22C C85U	-0.656
C87U A91G C105G	-4.02
C51G C79G C96G	≤ -4.2
G50A A115G	-2.49
A41U C57U G80A	-1.12
U9A U31G U53G G88A G126U A150C	≤ -4.2
G67A C85G A106G C129U G140C G143A	≤ -4.2
C36A C75U G83A A89C C99G C105U C123A C125A	≤ -4.2
U15G A89C A119U	-0.888

Variant	polymerase ribozyme fitness (log ratio)
A28U A29G A30U U61A G80C C93A A113U G140U G141A	≤ -4.2
U31A U55A G83A G117A	-0.253
U55G U90G A97G U135G	≤ -4.2
G71U A91U A122G G143U U145C	≤ -4.2
A20U C36G G70A	-4.1
U15G A17U C79G G80A G81U G92A G124A A147U	≤ -4.2
G50C G58U	-1.88
U78C G92A	-3.78
C72A A91U U145A	≤ -4.2
C69A U101G G126A	-0.681
A39G G42A G48C A49C G83U C87G C96A A107U	≤ -4.2
A49C G58C A66G C93G A107U A120U	≤ -4.2
G50C U102G	-3.32
U61A G67A C76A G81A C85A	≤ -4.2
G50U A60C G84A	-2.47
C99A A115U A120G	-2.43
C10A C85G G141U	≤ -4.2
U7C C57G A98G	-3.3
U53A G143C	-2.05
G50C A142U	-3.9
C10G G11U U15C G84A G88U	≤ -4.2

Variant	polymerase ribozyme fitness (log ratio)
C18U A41G C51U A115C G140U	-3.82
A22U G141A	2.05
G42A G59C C125G	≤ -4.2
A19G G50A G83C G86U C96U	≤ -4.2
C38G U56A C93U U104G A122C	-2.96
A17U G124U	-0.693
C79G A98U C99U G133U	≤ -4.2
G81A C93U C95U	-1.11
C79U C87G	-3.61
G58A C85A	-1.11
A24U A26U U55C A91G	≤ -4.2
A3G A49C C51U G59C C95U C131G	≤ -4.2
A23U G50C A122C G141C	≤ -4.2
A40C A113U C118U G136A	-2.68
G67A A91G U135G C149U	≤ -4.2
U45G A47G C54U C93G	≤ -4.2
A40U G50C A52G C85A U90C A97U	≤ -4.2
G50A A64C C95G C114U	≤ -4.2
A91G U130G	≤ -4.2
A23G U56A C63A C85U C93U	≤ -4.2
C35U A41G C85U G141U	1.25

Variant	polymerase ribozyme fitness (log ratio)
A91C U109G G140U	≤ -4.2
A39U U139A	-3.87
G11U A23U	≤ -4.2
U9G A17C A52C G84A C118A	≤ -4.2
C87G U104G	≤ -4.2
A17U C36A C54U G74C A120U U144A	≤ -4.2
C51U A89G A97G G143U	-3.43
A16U C18U U44G U82A C93U C99A A106G A142C	≤ -4.2
C54U C87U A115U	-1.85
U4A C8U A24C C96U	≤ -4.2
U55A G86A C149U A150U	-1.65
G117A A142U	-4.13
U6A A29G G74A C103G A107G A122U	≤ -4.2
A19C C43U U61G A64C U77G C85U A110U C116G	≤ -4.2
U13C A21C A23C G92U A142G A147U	≤ -4.2
A47G G50C U82G	≤ -4.2
U13C U33A C54A C95G A98C C99A A150G	≤ -4.2
U53A C75U G88C	≤ -4.2
A22G A41G A120G G141U	1.45
C57A A89C G94U A142G	-3.19
C96G A121C C129U	-0.0949
